In PMC11926245 (Nature Communications, 2025):

Columns and labels:
[1] = target: the molecule itself; assay: SEC-MALS; Superdex 200 Increase, 20 mM Na-Hepes pH 7.0, 200 mM NaCl; DNAJC12 3 mg/mL, TH, TH:DNAJC12 complex, TH(1-158) and TH(155-497) 2 mg/mL
DNAJC12-F193G = target: T1, DNAJC12-F193G (human, UniProt Q9UKB3-1 1-198, F193G); assay: BLI; biotinylated TH or TH variant immobilised on streptavidin sensors; DNAJC12 or variant 0.01-4 μM in solution; PBS, 0.02% Tween-20, 0.5 mg/mL BSA, 25 °C; responses fitted to a one-site hyperbola; conditions: both partners purified
T1 construct: source: E. coli BL21-CodonPlus(DE3)-RIL, purified (HisTrap, TEV cleavage, TALON, amylose, SEC); not shown: His6, N-terminal, cleaved; MBP, N-terminal, cleaved
T1 sequence (Q9UKB3 whole entry F193G): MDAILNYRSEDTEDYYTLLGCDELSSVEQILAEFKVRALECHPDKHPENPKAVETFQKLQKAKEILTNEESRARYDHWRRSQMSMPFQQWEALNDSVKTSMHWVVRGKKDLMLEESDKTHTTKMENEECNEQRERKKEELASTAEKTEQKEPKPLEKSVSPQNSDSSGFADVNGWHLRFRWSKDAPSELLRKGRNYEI

Kd (DNAJC12-F193G)	Binder	stoichiometry N [1]
–	TH regulatory domain, TH(1-158) (domain or fragment, human, UniProt P07101-3 1-158, looked up, biotinylated with EZ-Link NHS-PEG4-Biotin for BLI only) MPTPDATTPQAKGFRRAVSELDAKQAEAIMSPRFIGRRQSLIEDARKEREAAVAAAAAAVPSEPGDPLEAVAFEEKEGKAVLNLLFSPRATKPSALSRAVKVFETFEAKIHHLETRPAQRPRAGGPHLEYFVRLEVRRGDLAALLSGVRQVSEDVRSP	2
–	TH-R202H (TH-p.R202H), variant associated with TH deficiency (enzyme, biotinylated with EZ-Link NHS-PEG4-Biotin for BLI only) not shown	4
–	TH catalytic and oligomerization domains, TH(155-497) (domain or fragment, biotinylated with EZ-Link NHS-PEG4-Biotin for BLI only) not shown	4
1180 nM	Tyrosine hydroxylase, wild-type (hTH1) (enzyme, biotinylated with EZ-Link NHS-PEG4-Biotin for BLI only) not shown	–
